Measurements taken from publication PMC5207153, “Differential Receptor Binding and Regulatory Mechanisms for the Lymphangiogenic Growth Factors Vascular Endothelial Growth Factor (VEGF)-C and -D*^([image sbox.jpg])” (The Journal of Biological Chemistry, 2016).
Where a chain is given by its changes, count along the chain named. Names and notes keep the numbering of the source. Each block holds one molecule with its values, some of them ahead of it.

How the values were obtained:
[1] = target: T1, Recombinant human VEGFR-3-Fc chimera (human, UniProt P35916 25-775)
T1 construct: human VEGFR-3 part of the bought Fc chimera; source: bought: R&D Systems
T1 sequence (looked up): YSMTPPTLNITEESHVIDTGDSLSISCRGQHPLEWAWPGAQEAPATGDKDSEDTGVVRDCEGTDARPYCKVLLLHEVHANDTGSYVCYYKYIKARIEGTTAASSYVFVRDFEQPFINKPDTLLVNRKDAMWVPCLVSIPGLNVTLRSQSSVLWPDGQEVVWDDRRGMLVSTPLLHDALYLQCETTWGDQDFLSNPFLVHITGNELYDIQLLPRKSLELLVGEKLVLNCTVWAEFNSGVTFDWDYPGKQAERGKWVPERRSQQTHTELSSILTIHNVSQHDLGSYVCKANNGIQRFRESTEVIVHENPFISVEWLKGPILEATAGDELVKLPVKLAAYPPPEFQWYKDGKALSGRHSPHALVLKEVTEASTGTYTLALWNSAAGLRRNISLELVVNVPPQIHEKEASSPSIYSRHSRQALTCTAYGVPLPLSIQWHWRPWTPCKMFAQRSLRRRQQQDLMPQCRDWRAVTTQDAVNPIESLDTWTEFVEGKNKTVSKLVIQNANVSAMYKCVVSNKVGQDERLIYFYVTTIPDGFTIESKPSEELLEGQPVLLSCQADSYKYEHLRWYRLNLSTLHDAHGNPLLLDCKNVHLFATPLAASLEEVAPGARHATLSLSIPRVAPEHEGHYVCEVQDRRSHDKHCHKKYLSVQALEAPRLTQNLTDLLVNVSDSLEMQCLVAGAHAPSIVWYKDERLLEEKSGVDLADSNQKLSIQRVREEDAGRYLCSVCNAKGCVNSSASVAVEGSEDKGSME

[2] = target: T1, Recombinant human VEGFR-3-Fc chimera; assay: ELISA; plates coated with human VEGFR-2- or VEGFR-3-Fc chimera at 0.5 μg/ml in 100 mM carbonate buffer pH 9.5; blocked with 1% BSA in PBS, 0.1% Tween 20; 20 ng purified FLAG-tagged ligand in 100 μl PBS, 1 h, room temperature; bound ligand detected with M2-HRP; result as percent of VEGF-DΔNΔC; conditions: both partners purified
[3] = target: T2, Recombinant human VEGFR-2-Fc chimera (human, UniProt P35968 20-764); assay: as above; conditions: both partners purified
T2 construct: human VEGFR-2 part of the bought Fc chimera; source: bought: R&D Systems
T2 sequence (P35968 20-764, change not shown): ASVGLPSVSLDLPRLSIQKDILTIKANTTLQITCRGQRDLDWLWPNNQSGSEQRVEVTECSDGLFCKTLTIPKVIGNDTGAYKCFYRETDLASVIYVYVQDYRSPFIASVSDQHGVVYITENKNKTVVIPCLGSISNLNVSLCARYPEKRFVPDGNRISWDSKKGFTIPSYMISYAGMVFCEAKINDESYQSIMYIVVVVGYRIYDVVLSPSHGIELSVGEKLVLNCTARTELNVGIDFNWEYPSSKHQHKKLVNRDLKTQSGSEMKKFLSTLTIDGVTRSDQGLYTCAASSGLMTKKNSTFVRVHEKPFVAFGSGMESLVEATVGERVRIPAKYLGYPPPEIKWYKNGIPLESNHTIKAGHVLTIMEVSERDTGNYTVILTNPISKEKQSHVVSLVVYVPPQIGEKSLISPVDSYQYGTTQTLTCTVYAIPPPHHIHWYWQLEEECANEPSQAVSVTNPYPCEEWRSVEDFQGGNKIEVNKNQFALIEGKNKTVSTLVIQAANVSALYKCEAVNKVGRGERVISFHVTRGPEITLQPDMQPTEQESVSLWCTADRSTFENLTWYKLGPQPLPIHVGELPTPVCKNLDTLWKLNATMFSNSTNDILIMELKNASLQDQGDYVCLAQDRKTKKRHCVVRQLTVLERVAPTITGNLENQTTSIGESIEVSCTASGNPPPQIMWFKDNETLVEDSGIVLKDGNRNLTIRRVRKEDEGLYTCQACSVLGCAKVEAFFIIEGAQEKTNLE

binding result [3]: binds
B6: VEGF-DΔNΔC L99A (ligand, human, UniProt O43915 93-201, looked up)
chain: FYDIETAKVIDEEWQRTQCSPRETCVEVASELGKSTNTFFKPPCVNVFRCGGCCNEESLICMNTSTSYISKQLFEISVPLTSVPELVPVKVANHTGCKCLPTAPRHPYS
notes: human VEGF-D, residues 93-201, L99A; source: 293-F cells, transiently transfected; purified from conditioned medium on M2 (anti-FLAG) gel; not shown: FLAG, N-terminal, kept

binding result [3]: binds
B7: VEGF-DΔNΔC Y94A (ligand, human, UniProt O43915 93-201, looked up)
chain: B6 chain with Y2A, A7L
notes: human VEGF-D, residues 93-201, Y94A; source: 293-F cells, transiently transfected; purified from conditioned medium on M2 (anti-FLAG) gel; not shown: FLAG, N-terminal, kept

binding result [3]: binds
B8: VEGF-DΔNΔC D95A (ligand, human, UniProt O43915 93-201, looked up)
chain: B6 chain with D3A, A7L
notes: human VEGF-D, residues 93-201, Asp95 to alanine; source: 293-F cells, transiently transfected; purified from conditioned medium on M2 (anti-FLAG) gel; not shown: FLAG, N-terminal, kept

binding result [3]: binds
B9: VEGF-DΔNΔC F93A (ligand, human, UniProt O43915 93-201, looked up)
chain: B6 chain with F1A, A7L
notes: human VEGF-D, residues 93-201, Phe93 to alanine; source: 293-F cells, transiently transfected; purified from conditioned medium on M2 (anti-FLAG) gel; not shown: FLAG, N-terminal, kept

binding result [2]: binds
binding result [3]: binds
B10: VEGF-DΔNΔC E105A (ligand, human, UniProt O43915 93-201, looked up)
chain: B6 chain with A7L, E13A
notes: human VEGF-D, residues 93-201, E105A; source: 293-F cells, transiently transfected; purified from conditioned medium on M2 (anti-FLAG) gel; not shown: FLAG, N-terminal, kept

binding result [3]: binds
B11: VEGF-DΔNΔC E97A (ligand, human, UniProt O43915 93-201, looked up)
chain: B6 chain with E5A, A7L
notes: human VEGF-D, residues 93-201, Glu97 to alanine; source: 293-F cells, transiently transfected; purified from conditioned medium on M2 (anti-FLAG) gel; not shown: FLAG, N-terminal, kept

binding result [3]: binds
B12: VEGF-DΔNΔC I96A (ligand, human, UniProt O43915 93-201, looked up)
chain: B6 chain with I4A, A7L
notes: human VEGF-D, residues 93-201, residue 96 (Ile) to alanine; source: 293-F cells, transiently transfected; purified from conditioned medium on M2 (anti-FLAG) gel; not shown: FLAG, N-terminal, kept

The remaining lines, values behind:

Molecule: VEGF-CΔNΔC (from UniProt P49767 102-229) (ligand)
titration of ligand in the bioassay of VEGFR-3 binding and cross-linking; potency relative to VEGF-DΔNΔC (Fig. 6C) [1]: 10 fold

B1: VEGF-DΔNΔC (ligand, human, UniProt O43915 93-201, looked up)
chain: B6 chain with A7L
notes: human VEGF-D, residues 93-201 (recombinant form of mature VEGF-D); also called mature human VEGF-D; source: 293-F cells, transiently transfected; purified from conditioned medium on M2 (anti-FLAG) gel; not shown: FLAG, N-terminal, kept
binding result [2]: binds
binding result [3]: binds

B2: VEGF-DΔNΔC T98A (ligand, human, UniProt O43915 93-201, looked up)
chain: B6 chain with T6A, A7L
notes: human VEGF-D, residues 93-201, Thr98 to alanine; source: 293-F cells, transiently transfected; purified from conditioned medium on M2 (anti-FLAG) gel; not shown: FLAG, N-terminal, kept
binding result [3]: binds

B3: VEGF-DΔNΔC D103A (ligand, human, UniProt O43915 93-201, looked up)
chain: B6 chain with A7L, D11A
notes: human VEGF-D, residues 93-201, D103A; source: 293-F cells, transiently transfected; purified from conditioned medium on M2 (anti-FLAG) gel; not shown: FLAG, N-terminal, kept
binding result [2]: binds
binding result [3]: binds

B4: VEGF-DΔNΔC W106A (ligand, human, UniProt O43915 93-201, looked up)
chain: B6 chain with A7L, W14A
notes: human VEGF-D, residues 93-201, W106A; source: 293-F cells, transiently transfected; purified from conditioned medium on M2 (anti-FLAG) gel; not shown: FLAG, N-terminal, kept
binding result [2]: binds
binding result [3]: binds

B5: VEGF-DΔNΔC I102A (ligand, human, UniProt O43915 93-201, looked up)
chain: B6 chain with A7L, I10A
notes: human VEGF-D, residues 93-201, I102A; source: 293-F cells, transiently transfected; purified from conditioned medium on M2 (anti-FLAG) gel; not shown: FLAG, N-terminal, kept
binding result [2]: binds
binding result [3]: binds
